# Assay results: patent US20200024330A1
# B1: PGT-125 (antibody, V domains shown)
# VH: QSQLQESGPRLVEASETLSLTCNVSGESTGACTYFWGWVRQAPGKGLEWIGSLSHCQSFWGSGWTFHNPSLKSRLTISLDTPKNQVFLKLTSLTAADTATYYCARFDGEVLVYNHWPKPAWVDLWGRGIPVTVSS
# VL: QSALTQPPSASGSPGQSITISCNGTATNFVSWYQQFPDKAPKLIIFGVDKRPPGVPDRFSGSRSGTTASLTVSRLQTDDEAVYYCGSLVGNWDVIFGGGTTLTVL
# B2: PGT-126 (antibody, V domains shown)
# VH: QPQLQESGPGLVEASETLSLTCTVSGDSTAACDYFWGWVRQPPGKGLEWIGGLSHCAGYYNTGWTYHNPSLKSRLTISLDTPKNQVFLKLNSVTAADTAIYYCARFDGEVLVYHDWPKPAWVDLWGRGTLVTVSS
# VL: QSALTQPPSASGSPGQSISISCTGTSNRFVSWYQQHPGKAPKLVIYGVNKRPSGVPDRFSGSKSGNTASLTVSGLQTDDEAVYYCSSLVGNWDVIFGGGTKLTVL
# Key:
# Assay in all cases: cell-based or functional assay
# [1] = molecular target: Env of all HIV-1 pseudoviruses of the cross-clade 162-pseudovirus panel (n = 162)
# [2] = molecular target: HIV-1 94UG103 envelope glycoprotein (Env) (HIV-1)
# [3] = molecular target: HIV-1 JR-CSF Env N392Q (HIV-1 (isolate JR-CSF)) (UniProt P20871)
# [4] = molecular target: HIV-1 Env of isolate JR-CSF (HIV-1) (UniProt P20871)
# [5] = molecular target: HIV-1 JR-CSF Env I309A (HIV-1 JR-CSF) (UniProt P20871)
# [6] = molecular target: HIV-1 Env of isolate 92TH021 (HIV-1)
# [7] = molecular target: HIV-1 Env of isolate MGRM-A-005 (HIV-1)
# [8] = molecular target: HIV-1 JR-CSF Env I420A (HIV-1 (isolate JR-CSF)) (UniProt P20871)
# [9] = molecular target: HIV-1 JR-CSF Env T394A (HIV-1 (isolate JR-CSF)) (UniProt P20871)
# [10] = molecular target: Env of the clade G HIV-1 pseudoviruses of the cross-clade 162-pseudovirus panel (n = 15)
# [11] = molecular target: HIV-1 MGRM-C-027 envelope glycoprotein (Env) (HIV-1)
# [12] = molecular target: HIV-1 JR-CSF Env K305A (HIV-1 JR-CSF) (UniProt P20871)
# [13] = molecular target: HIV-1 JR-CSF Env W395A (HIV-1 (isolate JR-CSF)) (UniProt P20871)
# [14] = molecular target: Env of the clade C HIV-1 pseudoviruses of the cross-clade 162-pseudovirus panel (n = 27)
# [15] = molecular target: HIV-1 JR-CSF Env D417A (HIV-1 (isolate JR-CSF)) (UniProt P20871)
# [16] = molecular target: HIV-1 JRFL envelope glycoprotein (Env) (HIV-1)
# [17] = molecular target: HIV-1 JR-CSF Env T341A (HIV-1 isolate JR-CSF) (UniProt P20871)
# [18] = molecular target: HIV-1 JR-CSF Env Q422A (HIV-1 (isolate JR-CSF)) (UniProt P20871)
# [19] = molecular target: HIV-1 JR-CSF Env I326A (HIV-1 isolate JR-CSF) (UniProt P20871)
# [20] = molecular target: HIV-1 JR-CSF Env F210A (HIV-1 JR-CSF) (UniProt P20871)
# [21] = molecular target: HIV-1 JR-CSF Env N332A (HIV-1 isolate JR-CSF) (UniProt P20871)
# [22] = molecular target: HIV-1 JR-CSF Env N386A (HIV-1 isolate JR-CSF) (UniProt P20871)
# [23] = molecular target: HIV-1 JR-CSF Env N355A (HIV-1 isolate JR-CSF) (UniProt P20871)
# [24] = molecular target: HIV-1 Env of isolate MGRM-A-011 (HIV-1)
# [25] = molecular target: HIV-1 MGRM-C-028 envelope glycoprotein (Env) (HIV-1)
# [26] = molecular target: HIV-1 Env of isolate MGRM-AE-003 (HIV-1)
# [27] = molecular target: HIV-1 JR-CSF Env N396A (HIV-1 (isolate JR-CSF)) (UniProt P20871)
# [28] = molecular target: HIV-1 JR-CSF Env G324A (HIV-1 isolate JR-CSF) (UniProt P20871)
# [29] = molecular target: HIV-1 JR-CSF Env F317A (HIV-1 isolate JR-CSF) (UniProt P20871)
# [30] = molecular target: HIV-1 Env of isolate MGRM-A-002 (HIV-1)
# [31] = molecular target: HIV-1 JR-CSF Env N241A (HIV-1 JR-CSF) (UniProt P20871)
# [32] = molecular target: HIV-1 JR-CSF Env K343A (HIV-1 isolate JR-CSF) (UniProt P20871)
# [33] = molecular target: HIV-1 JR-CSF Env K421A (HIV-1 (isolate JR-CSF)) (UniProt P20871)
# [34] = molecular target: HIV-1 JR-CSF Env N276A (HIV-1 JR-CSF) (UniProt P20871)
# [35] = molecular target: HIV-1 JR-CSF Env R304A (HIV-1 JR-CSF) (UniProt P20871)
# [36] = molecular target: HIV-1 JR-CSF Env N301A (HIV-1 JR-CSF) (UniProt P20871)
# [37] = molecular target: HIV-1 JR-CSF Env R350A (HIV-1 isolate JR-CSF) (UniProt P20871)
# [38] = molecular target: HIV-1 JR-CSF Env N302A (HIV-1 JR-CSF) (UniProt P20871)
# [39] = molecular target: HIV-1 JR-CSF Env S393A (HIV-1 (isolate JR-CSF)) (UniProt P20871)
# [40] = molecular target: HIV-1 Env of isolate CMU02 (HIV-1)
# [41] = molecular target: HIV-1 JR-CSF Env P299A (HIV-1 JR-CSF) (UniProt P20871)
binder,measurement,setting,value
B1,Median IC50 against viruses neutralized with an IC50 <50 µg/ml,[1],0.04 µg/mL
same,IC50 neutralization,[2],0.0124 µg/mL
same,Fold IC50 increase relative to wild-type,[3],1.2 fold
same,Polyclonal Transfectant Neutralization Index (well 5123 A6),[4],119
same,Primary Neutralization Index (B cell culture well 5123 A6),[4],1730
same,Fold IC50 increase relative to wild-type,[5],1 fold
same,"IC50 (µg/mL), pseudovirus neutralization",[6],0.006 µg/mL
same,Polyclonal Transfectant Neutralization Index (well 5123 A6),[6],50.6
same,Primary Neutralization Index (B cell culture well 5123 A6),[6],133
same,"IC50 (µg/mL), pseudovirus neutralization",[7],> 50 µg/mL
same,Fold IC50 increase relative to wild-type,[8],1.1 fold
same,Fold IC50 increase relative to wild-type,[9],0.6 fold
same,Median IC50 against viruses neutralized with an IC50 <50 µg/ml,[10],0.02 µg/mL
same,IC50 neutralization,[11],> 10 µg/mL
same,Fold IC50 increase relative to wild-type,[12],1.9 fold
same,Fold IC50 increase relative to wild-type,[13],0.9 fold
same,Median IC50 against viruses neutralized with an IC50 <50 µg/ml,[14],1.83 µg/mL
same,Fold IC50 increase relative to wild-type,[15],0.5 fold
same,IC50 neutralization,[16],0.0156 µg/mL
same,Fold IC50 increase relative to wild-type,[17],1.1 fold
same,Fold IC50 increase relative to wild-type,[18],1.2 fold
same,Fold IC50 increase relative to wild-type,[19],0.9 fold
same,Fold IC50 increase relative to wild-type,[20],1.4 fold
same,Fold IC50 increase relative to wild-type,[21],2 fold
same,Fold IC50 increase relative to wild-type,[22],0.8 fold
same,Fold IC50 increase relative to wild-type,[23],1.2 fold
same,"IC50 (µg/mL), pseudovirus neutralization",[24],> 50 µg/mL
same,IC50 neutralization,[25],5.78 µg/mL
same,"IC50 (µg/mL), pseudovirus neutralization",[26],0.092 µg/mL
same,Fold IC50 increase relative to wild-type,[27],1.6 fold
same,Fold IC50 increase relative to wild-type,[28],1.7 fold
same,Fold IC50 increase relative to wild-type,[29],1.8 fold
same,"IC50 (µg/mL), pseudovirus neutralization",[30],0.013 µg/mL
same,Fold IC50 increase relative to wild-type,[31],0.5 fold
same,Fold IC50 increase relative to wild-type,[32],0.7 fold
same,Fold IC50 increase relative to wild-type,[33],1.2 fold
same,Fold IC50 increase relative to wild-type,[34],0.9 fold
same,Fold IC50 increase relative to wild-type,[35],1.9 fold
same,Fold IC50 increase relative to wild-type,[36],213 fold
same,Fold IC50 increase relative to wild-type,[37],0.6 fold
same,Fold IC50 increase relative to wild-type,[38],0.7 fold
same,Fold IC50 increase relative to wild-type,[39],0.5 fold
same,"IC50 (µg/mL), pseudovirus neutralization",[40],> 50 µg/mL
same,Fold IC50 increase relative to wild-type,[41],0.2 fold
B2,Median IC50 against viruses neutralized with an IC50 <50 µg/ml,[1],0.04 µg/mL
same,IC50 neutralization,[2],0.0091 µg/mL
same,Fold IC50 increase relative to wild-type,[3],1.6 fold
same,Polyclonal Transfectant Neutralization Index (well 5141 B17),[4],102
same,Primary Neutralization Index (B cell culture well 5141 B17),[4],1410
same,Fold IC50 increase relative to wild-type,[5],1.2 fold
same,"IC50 (µg/mL), pseudovirus neutralization",[6],0.197 µg/mL
same,Polyclonal Transfectant Neutralization Index (well 5141 B17),[6],2.74
same,Primary Neutralization Index (B cell culture well 5141 B17),[6],2.3
same,"IC50 (µg/mL), pseudovirus neutralization",[7],> 50 µg/mL
same,Fold IC50 increase relative to wild-type,[8],0.6 fold
same,Fold IC50 increase relative to wild-type,[9],0.6 fold
same,Median IC50 against viruses neutralized with an IC50 <50 µg/ml,[10],0.18 µg/mL
same,IC50 neutralization,[11],1.14 µg/mL
same,Fold IC50 increase relative to wild-type,[12],1 fold
same,Fold IC50 increase relative to wild-type,[13],0.6 fold
same,Median IC50 against viruses neutralized with an IC50 <50 µg/ml,[14],0.18 µg/mL
same,Fold IC50 increase relative to wild-type,[15],1 fold
same,IC50 neutralization,[16],0.014 µg/mL
same,Fold IC50 increase relative to wild-type,[17],0.5 fold
same,Fold IC50 increase relative to wild-type,[18],1.1 fold
same,Fold IC50 increase relative to wild-type,[19],0.8 fold
same,Fold IC50 increase relative to wild-type,[20],1.5 fold
same,Fold IC50 increase relative to wild-type,[21],181 fold
same,Fold IC50 increase relative to wild-type,[22],0.9 fold
same,Fold IC50 increase relative to wild-type,[23],0.2 fold
same,"IC50 (µg/mL), pseudovirus neutralization",[24],> 50 µg/mL
same,IC50 neutralization,[25],0.283 µg/mL
same,"IC50 (µg/mL), pseudovirus neutralization",[26],> 50 µg/mL
same,Fold IC50 increase relative to wild-type,[27],1.7 fold
same,Fold IC50 increase relative to wild-type,[28],3.3 fold
same,Fold IC50 increase relative to wild-type,[29],1 fold
same,"IC50 (µg/mL), pseudovirus neutralization",[30],0.015 µg/mL
same,Fold IC50 increase relative to wild-type,[31],0.6 fold
same,Fold IC50 increase relative to wild-type,[32],1.2 fold
same,Fold IC50 increase relative to wild-type,[33],0.7 fold
same,Fold IC50 increase relative to wild-type,[34],0.9 fold
same,Fold IC50 increase relative to wild-type,[35],1.8 fold
same,Fold IC50 increase relative to wild-type,[36],314 fold
same,Fold IC50 increase relative to wild-type,[37],0.7 fold
same,Fold IC50 increase relative to wild-type,[38],0.9 fold
same,Fold IC50 increase relative to wild-type,[39],0.5 fold
same,"IC50 (µg/mL), pseudovirus neutralization",[40],> 50 µg/mL
same,Fold IC50 increase relative to wild-type,[41],0.2 fold
